Measured values taken from article PMC9098913, “In vitro reconstitution of Escherichia coli divisome activation” (Nature Communications, 2022).

Test: Diffusion coefficient (Dcoeff) of FtsA from FRAP
Conditions: for Diffusion Coefficient, mean: Fig. 3j; for Dcoeff: Fig. S3i/S3j, summary value
Source text: We could also use the data from these bleaching experiments to quantify the membrane-binding kinetics and diffusion of membrane-bound proteins by analysing the change of the fluorescence profile during recovery.
Equimolar concentrations of Cy3- and Cy5-labelled FtsA, supplemented with 20% unlabelled FtsA were used to study FRET and FRAP. Five pre-bleach frames were acquired, followed by acceptor photobleaching of a rectangular ROI with 40% 641 nm laser power and a dwell size of 1 µs/pixel, 75% overlapping lines. The recovery of the signal or the increase in donor intensity were measured with either two frames or one frame per second.
Bleaching the acceptor dye leads to an increase in the donor intensity, which can be used to quantify the Foerster Resonance energy transfer (FRET)[48]. FRET efficiency was quantified with E%=Ipost/Ipost+Ipre⋅100 , where Ipost is the intensity of the […] and Ipre is the […]. […] To extract the contribution of both processes, we adjusted a routine recently published by Gerganova et al.[33]. In short, the code provides the contribution of both modes of recovery by analysing the shape of the fluorescence recovery profile. […] Contribution of diffusion leads to a change of the slope of the outer borders of the bleached region (S4h right). Thus, by measuring the change of the slope of the border recovery, diffusion and simple on/off binding can be distinguished. We developed “FRAPdiff”, a graphical user interface, which uses the original fit routine by David Rutkowski. It can be used directly on.tiff movies with annotated bleach regions as ImageJ ROIs. In addition, we added optional bleach correction, user selectable projection axis (x or y), and optional mirroring of the recovery profiles, if bleaching was not symmetric. The original fit routine for estimating the recovery and diffusion dynamics can be found at https://github.com/davidmrutkowski/1DReflectingDiffusion. FRAPdiff is available at 10.5281/zenodo.6400639[49] under the GPLv3 open-source license.

B1: FtsA R286W (protein)
chain: MIKATDRKLVVGLEIGTAKVAALVGEVLPDGMVNIIGVGSCPSRGMDKGGVNDLESVVKCVQRAIDQAELMADCQISSVYLALSGKHISCQNEIGMVPISEEEVTQEDVENVVHTAKSVRVRDEHRVLHVIPQEYAIDYQEGIKNPVGLSGVRMQAKVHLITCHNDMAKNIVKAVERCGLKVDQLIFAGLASSYSVLTEDERELGVCVVDIGGGTMDIAVYTGGALRHTKVIPYAGNVVTSDIAYAFGTPPSDAEAIKVRHGCALGSIVGKDESVEVPSVGGRPPWSLQRQTLAEVIEPRYTELLNLVNEEILQLQEKLRQQGVKHHLAAGIVLTGGAAQIEGLAACAQRVFHTQVRIGAPLNITGLTDYAQEPYYSTAVGLLHYGKESHLNGEAEVEKRVTASVGSWIKRLNSWLRKEF
modifications: Cy3 or Cy5 at the N-terminus in the labelled form (labelled CLEPTGG peptide conjugated to the 5xGly tag by sortagging); unlabelled protein also used; left off: TwinStrep-SUMO, N-terminal, cleaved | 5x
0.1 µM FtsA + N
  Diffusion Coefficient, mean: 7.25E-02 µm2/s
0.1 µM FtsA + Z&N
  Diffusion Coefficient, mean: 2.31E-02 µm2/s
0.1 µM FtsA + Z
  Diffusion Coefficient, mean: 5.72E-03 µm2/s
0.1µM FtsA alone, Mean, n=18 (WT), 6 (R286W)
  Diffusion Coefficient: 0.0520
0.1 µM FtsA alone
  Diffusion Coefficient, mean: 5.20E-02 µm2/s
0.1µM FtsA alone, replicate Exp.1
  Diffusion Coefficient: 8.43E-02
0.1µM FtsA alone, replicate Exp.2
  Diffusion Coefficient: 1.09E-02
0.1µM FtsA alone, replicate Exp.3
  Diffusion Coefficient: 6.73E-03
0.1µM FtsA alone, replicate Exp.4
  Diffusion Coefficient: 8.58E-02
0.1µM FtsA alone, replicate Exp.5
  Diffusion Coefficient: 8.30E-02
0.1µM FtsA alone, replicate Exp.6
  Diffusion Coefficient: 4.11E-02
0.1µM, + FtsN&Z, Mean, n=5 (WT), 3 (R286W)
  Diffusion Coefficient: 0.0231
0.1µM, + FtsN&Z, replicate Exp.1
  Diffusion Coefficient: 1.54E-02
0.1µM, + FtsN&Z, replicate Exp.2
  Diffusion Coefficient: 3.28E-02
0.1µM, + FtsN&Z, replicate Exp.3
  Diffusion Coefficient: 2.10E-02
0.1µM, + FtsN, Mean, n=5 (WT), 3 (R286W)
  Diffusion Coefficient: 0.0725
0.1µM, + FtsN, replicate Exp.1
  Diffusion Coefficient: 2.08E-01
0.1µM, + FtsN, replicate Exp.2
  Diffusion Coefficient: 5.52E-03
0.1µM, + FtsN, replicate Exp.3
  Diffusion Coefficient: 4.11E-03
0.1µM, + FtsZ, Mean, n=8 (WT), 4 (R286W)
  Diffusion Coefficient: 0.0057
0.1µM, + FtsZ, replicate Exp.1
  Diffusion Coefficient: 3.86E-04
0.1µM, + FtsZ, replicate Exp.2
  Diffusion Coefficient: 2.70E-04
0.1µM, + FtsZ, replicate Exp.3
  Diffusion Coefficient: 1.57E-02
0.1µM, + FtsZ, replicate Exp.4
  Diffusion Coefficient: 6.48E-03
0.2 µM FtsA + N
  Diffusion Coefficient, mean: 7.49E-02 µm2/s
0.2 µM FtsA + Z&N
  Diffusion Coefficient, mean: 3.50E-02 µm2/s
0.2 µM FtsA + Z
  Diffusion Coefficient, mean: 1.81E-02 µm2/s
0.2µM FtsA alone, Mean, n=24 (WT), 6 (R286W)
  Diffusion Coefficient: 0.1536
0.2 µM FtsA alone
  Diffusion Coefficient, mean: 1.54E-01 µm2/s
0.2µM FtsA alone, replicate Exp.1
  Diffusion Coefficient: 5.97E-01
0.2µM FtsA alone, replicate Exp.2
  Diffusion Coefficient: 7.31E-02
0.2µM FtsA alone, replicate Exp.3
  Diffusion Coefficient: 7.49E-02
0.2µM FtsA alone, replicate Exp.4
  Diffusion Coefficient: 3.26E-02
0.2µM FtsA alone, replicate Exp.5
  Diffusion Coefficient: 1.37E-01
0.2µM FtsA alone, replicate Exp.6
  Diffusion Coefficient: 6.07E-03
0.2µM, + FtsN&Z, Mean, n=8 (WT), 6 (R286W)
  Diffusion Coefficient: 0.0350
0.2µM, + FtsN&Z, replicate Exp.1
  Diffusion Coefficient: 5.92E-02
0.2µM, + FtsN&Z, replicate Exp.2
  Diffusion Coefficient: 5.62E-02
0.2µM, + FtsN&Z, replicate Exp.3
  Diffusion Coefficient: 3.73E-02
0.2µM, + FtsN&Z, replicate Exp.4
  Diffusion Coefficient: 2.25E-02
0.2µM, + FtsN&Z, replicate Exp.5
  Diffusion Coefficient: 3.21E-02
0.2µM, + FtsN&Z, replicate Exp.6
  Diffusion Coefficient: 2.82E-03
0.2µM, + FtsN, Mean, n=7 (WT), 4 (R286W)
  Diffusion Coefficient: 0.0749
0.2µM, + FtsN, replicate Exp.1
  Diffusion Coefficient: 3.41E-02
0.2µM, + FtsN, replicate Exp.2
  Diffusion Coefficient: 6.37E-02
0.2µM, + FtsN, replicate Exp.3
  Diffusion Coefficient: 1.01E-01
0.2µM, + FtsN, replicate Exp.4
  Diffusion Coefficient: 1.01E-01
0.2µM, + FtsZ, Mean, n=7 (WT), 6 (R286W)
  Diffusion Coefficient: 0.0181
0.2µM, + FtsZ, replicate Exp.1
  Diffusion Coefficient: 2.61E-02
0.2µM, + FtsZ, replicate Exp.2
  Diffusion Coefficient: 3.49E-02
0.2µM, + FtsZ, replicate Exp.3
  Diffusion Coefficient: 2.40E-02
0.2µM, + FtsZ, replicate Exp.4
  Diffusion Coefficient: 1.48E-02
0.2µM, + FtsZ, replicate Exp.5
  Diffusion Coefficient: 2.86E-04
0.2µM, + FtsZ, replicate Exp.6
  Diffusion Coefficient: 8.41E-03
0.4 µM FtsA + N
  Diffusion Coefficient, mean: 4.57E-02 µm2/s
0.4 µM FtsA + Z&N
  Diffusion Coefficient, mean: 7.88E-03 µm2/s
0.4 µM FtsA + Z
  Diffusion Coefficient, mean: 3.05E-02 µm2/s
0.4µM FtsA alone, Mean, n=18 (WT), 9 (R286W)
  Diffusion Coefficient: 0.1352
0.4 µM FtsA alone
  Diffusion Coefficient, mean: 1.35E-01 µm2/s
0.4µM FtsA alone, replicate Exp.1
  Diffusion Coefficient: 1.81E-01
0.4µM FtsA alone, replicate Exp.2
  Diffusion Coefficient: 2.05E-02
0.4µM FtsA alone, replicate Exp.3
  Diffusion Coefficient: 2.71E-02
0.4µM FtsA alone, replicate Exp.4
  Diffusion Coefficient: 1.05E-01
0.4µM FtsA alone, replicate Exp.5
  Diffusion Coefficient: 1.05E-01
0.4µM FtsA alone, replicate Exp.6
  Diffusion Coefficient: 1.63E-01
0.4µM FtsA alone, replicate Exp.7
  Diffusion Coefficient: 2.73E-01
0.4µM FtsA alone, replicate Exp.8
  Diffusion Coefficient: 2.14E-01
0.4µM FtsA alone, replicate Exp.9
  Diffusion Coefficient: 1.27E-01
0.4 µM FtsA, FRAP, p-value […] 10^−6
  Diffusion Coefficient: 0.14 ± 0.08 µm^2/s
0.4µM, + FtsN&Z, Mean, n=6 (WT), 9 (R286W)
  Diffusion Coefficient: 0.0079
0.4µM, + FtsN&Z, replicate Exp.1
  Diffusion Coefficient: 3.88E-02
0.4µM, + FtsN&Z, replicate Exp.2
  Diffusion Coefficient: 8.74E-03
0.4µM, + FtsN&Z, replicate Exp.3
  Diffusion Coefficient: 4.31E-03
0.4µM, + FtsN&Z, replicate Exp.4
  Diffusion Coefficient: 3.80E-04
0.4µM, + FtsN&Z, replicate Exp.5
  Diffusion Coefficient: 1.83E-02
0.4µM, + FtsN&Z, replicate Exp.6
  Diffusion Coefficient: 1.51E-04
0.4µM, + FtsN&Z, replicate Exp.7
  Diffusion Coefficient: 1.71E-04
0.4µM, + FtsN, Mean, n=5 (WT), 6 (R286W)
  Diffusion Coefficient: 0.0457
0.4µM, + FtsN, replicate Exp.1
  Diffusion Coefficient: 2.78E-02
0.4µM, + FtsN, replicate Exp.2
  Diffusion Coefficient: 2.32E-02
0.4µM, + FtsN, replicate Exp.3
  Diffusion Coefficient: 3.10E-02
0.4µM, + FtsN, replicate Exp.4
  Diffusion Coefficient: 1.25E-01
0.4µM, + FtsN, replicate Exp.5
  Diffusion Coefficient: 3.86E-02
0.4µM, + FtsN, replicate Exp.6
  Diffusion Coefficient: 2.82E-02
0.4µM, + FtsZ, Mean, n=5 (WT), 8 (R286W)
  Diffusion Coefficient: 0.0305
0.4µM, + FtsZ, replicate Exp.1
  Diffusion Coefficient: 9.70E-03
0.4µM, + FtsZ, replicate Exp.2
  Diffusion Coefficient: 1.10E-04
0.4µM, + FtsZ, replicate Exp.3
  Diffusion Coefficient: 2.57E-02
0.4µM, + FtsZ, replicate Exp.4
  Diffusion Coefficient: 8.47E-04
0.4µM, + FtsZ, replicate Exp.5
  Diffusion Coefficient: 3.19E-02
0.4µM, + FtsZ, replicate Exp.6
  Diffusion Coefficient: 1.28E-01
0.4µM, + FtsZ, replicate Exp.7
  Diffusion Coefficient: 3.30E-03
0.4µM, + FtsZ, replicate Exp.8
  Diffusion Coefficient: 4.40E-02
0.8 µM FtsA + N
  Diffusion Coefficient, mean: 4.39E-02 µm2/s
0.8 µM FtsA + Z&N
  Diffusion Coefficient, mean: 7.03E-03 µm2/s
0.8 µM FtsA + Z
  Diffusion Coefficient, mean: 1.59E-02 µm2/s
0.8µM FtsA alone, Mean, n=19 (WT), 8 (R286W)
  Diffusion Coefficient: 0.1136
0.8 µM FtsA alone
  Diffusion Coefficient, mean: 1.14E-01 µm2/s
0.8µM FtsA alone, replicate Exp.1
  Diffusion Coefficient: 2.82E-01
0.8µM FtsA alone, replicate Exp.2
  Diffusion Coefficient: 8.82E-02
0.8µM FtsA alone, replicate Exp.3
  Diffusion Coefficient: 6.72E-02
0.8µM FtsA alone, replicate Exp.4
  Diffusion Coefficient: 7.30E-02
0.8µM FtsA alone, replicate Exp.5
  Diffusion Coefficient: 1.01E-01
0.8µM FtsA alone, replicate Exp.6
  Diffusion Coefficient: 8.47E-02
0.8µM FtsA alone, replicate Exp.7
  Diffusion Coefficient: 1.13E-01
0.8µM FtsA alone, replicate Exp.8
  Diffusion Coefficient: 9.93E-02
0.8µM, + FtsN&Z, Mean, n=5 (WT), 4 (R286W)
  Diffusion Coefficient: 0.0070
0.8µM, + FtsN&Z, replicate Exp.1
  Diffusion Coefficient: 2.90E-03
0.8µM, + FtsN&Z, replicate Exp.2
  Diffusion Coefficient: 7.64E-03
0.8µM, + FtsN&Z, replicate Exp.3
  Diffusion Coefficient: 1.38E-02
0.8µM, + FtsN&Z, replicate Exp.4
  Diffusion Coefficient: 3.70E-03
0.8µM, + FtsN, Mean, n=4 (WT), 3 (R286W)
  Diffusion Coefficient: 0.0439
0.8µM, + FtsN, replicate Exp.1
  Diffusion Coefficient: 1.96E-02
0.8µM, + FtsN, replicate Exp.2
  Diffusion Coefficient: 4.05E-02
0.8µM, + FtsN, replicate Exp.3
  Diffusion Coefficient: 7.15E-02
0.8µM, + FtsZ, Mean, n=3 (WT), 8 (R286W)
  Diffusion Coefficient: 0.0159
0.8µM, + FtsZ, replicate Exp.1
  Diffusion Coefficient: 3.69E-02
0.8µM, + FtsZ, replicate Exp.2
  Diffusion Coefficient: 8.95E-03
0.8µM, + FtsZ, replicate Exp.3
  Diffusion Coefficient: 1.47E-02
0.8µM, + FtsZ, replicate Exp.4
  Diffusion Coefficient: 3.84E-03
0.8µM, + FtsZ, replicate Exp.5
  Diffusion Coefficient: 3.32E-03
0.8µM, + FtsZ, replicate Exp.6
  Diffusion Coefficient: 1.93E-02
0.8µM, + FtsZ, replicate Exp.7
  Diffusion Coefficient: 8.19E-14
0.8µM, + FtsZ, replicate Exp.8
  Diffusion Coefficient: 4.01E-02
0.10 µM FtsA
  Dcoeff: 5.20E-02 µm2/s
0.20 µM FtsA
  Dcoeff: 6.48E-02 µm2/s
0.40 µM FtsA
  Dcoeff: 1.35E-01 µm2/s
0.80 µM FtsA
  Dcoeff: 1.14E-01 µm2/s
